According to publication PMC4383634, “Dual-Specificity Anti-sigma Factor Reinforces Control of Cell-Type Specific Gene Expression in Bacillus subtilis” (PLoS Genetics, 2015):

T1: GST-σ^(E 30–141) (B. subtilis, UniProt P06222 30-141)
T1 construct: also called fragment c; regions 2.1 through 2.4; source: E. coli, overproduced and partially purified; not shown: GST, N-terminal, kept
T1 sequence (looked up): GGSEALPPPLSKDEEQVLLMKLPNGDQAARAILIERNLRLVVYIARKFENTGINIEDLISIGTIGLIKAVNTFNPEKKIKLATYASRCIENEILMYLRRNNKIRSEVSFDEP

T2: GST-σ^E fusion protein, lacking its pro region (sigma fragment a) (B. subtilis, UniProt P06222 30-239)
T2 construct: source: E. coli, overproduced and partially purified; not shown: GST, N-terminal, kept
T2 sequence (looked up): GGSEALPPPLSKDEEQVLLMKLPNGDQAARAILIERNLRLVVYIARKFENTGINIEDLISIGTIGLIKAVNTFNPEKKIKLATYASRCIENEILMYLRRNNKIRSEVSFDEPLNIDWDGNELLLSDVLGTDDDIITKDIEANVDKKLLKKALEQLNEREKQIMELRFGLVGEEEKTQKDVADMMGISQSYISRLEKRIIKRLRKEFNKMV

T3: GST-σ^(E 30–172) (B. subtilis, UniProt P06222 30-172)
T3 construct: σ^E of B. subtilis, residues 30-172, regions 2.1 through 3.1; also called fragment d; regions 2.1 through 3.1; source: E. coli, overproduced and partially purified; not shown: GST, N-terminal, kept
T3 sequence (looked up): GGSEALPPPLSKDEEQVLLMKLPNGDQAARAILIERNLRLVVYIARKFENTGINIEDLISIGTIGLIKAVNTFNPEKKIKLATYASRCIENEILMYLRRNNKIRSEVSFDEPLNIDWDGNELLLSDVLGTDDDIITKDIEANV

T4: σ^E, untagged, lacking its pro-sequence (B. subtilis, UniProt P06222 30-239)
T4 construct: printed molecular weight 29 kDa; a tag was perhaps removed; also called purified σ^E; source: E. coli, overproduced, purified
T4 sequence (looked up): T2 sequence (looked up)

B1: CsfB-StrepII-tagged protein (natural protein, B. subtilis, UniProt P37534 1-64, looked up)
chain: MDETVKLNHTCVICDQEKNRGIHLYTKFICLDCERKVISTSTSDPDYAFYVKKLKSIHTPPLYS
notes: CsfB (Gin), anti-sigma factor of B. subtilis; source: E. coli, overproduced and partially purified; not shown: Strep II tag, C-terminal, kept
B2: His6-CsfB (natural protein, B. subtilis, UniProt P37534 1-64, looked up)
chain: B1 chain
notes: CsfB (Gin), anti-sigma factor of B. subtilis; the plasmid is described in S1 Text; also called purified CsfB; source: E. coli, overproduced, purified (Ni-NTA, Superdex 75); not shown: His6, N-terminal, kept

Tests used:
Settings in all cases: both partners purified
[1] = molecular target: T1, GST-σ^(E 30–141); test: pull-down; GST or GST-σ^E fusions on glutathione beads incubated with CsfB-Strep II (100 nM); after washing, eluted proteins immunoblotted with anti-Strep II tag antibody
[2] = molecular target: T2, GST-σ^E fusion protein, lacking its pro …; test: as above
[3] = molecular target: T3, GST-σ^(E 30–172); test: as above
[4] = molecular target: T4, σ^E, untagged, lacking its pro-sequence; test: pull-down; Ni2+-NTA affinity chromatography: His6-CsfB held on the column, untagged purified σ^E or σ^K applied, eluted with an imidazole buffer, SDS-PAGE and Coomassie staining

Row | Binder | binding result [1] | binding result [2] | binding result [3] | binding result [4]
1 | B1 | binds | binds | binds | –
2 | B2 | – | – | – | binds
